pKi: −log10 of the molar value.
How the values were obtained:
[1] = biological target: Human cathepsin K (human) (UniProt P43235); test: enzyme inhibition (fluorogenic peptide substrate); KT inhibitor (2 μM) incubated with each protease in 100 μl reaction buffer for 15 min at 37 °C, then fluorogenic substrate; inhibition constants by the Morrison equation for tight-binding inhibition
[2] = biological target: F. hepatica cathepsin L2 (Fasciola hepatica); test: as above
[3] = biological target: F. hepatica cathepsin L1 (Fasciola hepatica); test: as above
[4] = biological target: Human cathepsin L (human); test: as above
[5] = biological target: F. hepatica cathepsin L3 (Fasciola hepatica); test: as above
Bovine trypsin (bovine) [6] = test: as above
Bovine trypsin (bovine) [7] = biological target: Bovine trypsin (bovine)
[8] = biological target: F. hepatica cathepsin L3 (Fasciola hepatica)

Chain of Human cathepsin K (human) (P43235 115-329): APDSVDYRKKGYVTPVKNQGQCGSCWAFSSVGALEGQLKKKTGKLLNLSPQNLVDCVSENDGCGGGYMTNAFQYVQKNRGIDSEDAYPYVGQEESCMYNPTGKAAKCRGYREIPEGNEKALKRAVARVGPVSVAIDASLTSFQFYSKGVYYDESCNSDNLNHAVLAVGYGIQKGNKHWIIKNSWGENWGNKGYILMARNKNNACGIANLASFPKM

rFhKT1.1Arg^19/Ala^19 (natural protein)
pKi [1]: 7.73 | pKi [2]: 7.46 | pKi [3]: 8.38 | pKi [4]: 9.52 | pKi [5]: 7.48

rFhKT1.1Leu^15/Arg^15 (natural protein)
pKi [5]: 8.44

Recombinant FhKT1.3 (Fasciola hepatica Kunitz-type inhibitor 1.3) (natural protein)
pKi [1]: 8.26 | pKi [2]: 7.97 | pKi (Bovine trypsin (bovine) [6]): 8.74 | pKi [3]: 9.22 | pKi [4]: 8.59 | pKi [5]: 8.49 | reduction in trypsin activity at 2 μM inhibitor (fluorogenic substrate) (Bovine trypsin (bovine) [7]): 99.2%

Recombinant FhKT1.1 (Fasciola hepatica Kunitz-type inhibitor 1.1) (natural protein)
pKi [5]: 8.74 | reduction of FhCL3 activity at 2 μM inhibitor (fluorogenic substrate) [8]: 93.1%
